Drawing on the RNAGym collection of RNA variant scans (doi:10.7554/elife.80360), this text covers self-cleavage for 167 variants.

To fix the notation:
B1: HDV Ribozyme (parent)
chain: GGCCGGCAUGGUCCCAGCCUCCUCGCUGGCGCCGGCUGGGCAACAUUCCGAGGGGACCGUCCCCUCGGUAAUGGCGAAUGGGACCCA

In the series the parent is B1. Put plainly: self-cleavage, relative activity (ratio to wild type); higher = more cleavage; co-transcriptional.
Consider C33U C49A, for which the self-cleavage came to 0.946.
The result for G34A U47A reads 0.0997.
The result for G34A G39U reads 0.287; that for C33G C64G, 0.156.
In the case of G34A A83C, the self-cleavage turned out to be 0.203.
The result for G34A A83G reads 0.0817; that for C33G U37G, 0.161; that for C33G C58A, 0.369.
With C33G C58U, the self-cleavage was determined as 0.147.
The value for C33G A45U was 0.185.
The result for C33U U69A reads 0.898; that for G34A C36G, 0.122; that for C33G U79G, 0.0665.
The result for C33G U60A reads 0.19; that for C33G U60C, 0.196.
With C33A U60C, the self-cleavage is 0.415.
Regarding C33A G68A, the self-cleavage was found to be 0.157.
The result for C33U A83C reads 0.242; that for C33U G73U, 0.391.
The value for C33U G73C was 0.31.
The value for C33U G73A was 0.554.
For the variant C33U A70G, the self-cleavage is 0.758.
The result for C33G A83C reads 0.252.
The value for C33G C62U was 0.259; that for C33G A70C was 0.145.
The value for G34A G50C was 0.267; that for C33G C84A was 0.231; that for G34A C75U was 0.086.
On to C33U A78C, for which the self-cleavage worked out at 0.0831.
The value for G34C was 0.195; that for G34A was 0.189.
In the case of G34A A70G, the self-cleavage came out at 0.233.
The value for C33U G38A was 0.172; that for C33A G35U was 0.137; that for C33A G59A was 0.343.
Turning to G34A C44G, the self-cleavage was 0.134.
The value for G34A C44U was 0.0863; that for C33U A42U was 0.345.
For C33U G81A, the self-cleavage is 0.285.
Regarding C33G G39A, the self-cleavage was determined as 0.0997.
As to C33G C41G, the self-cleavage was found to be 0.111.
The result for C33G C41U reads 0.119; that for G34A U46C, 0.215; that for G34A U46G, 0.0332.
The result for C33U G59C reads 1.01; that for C33A C63A, 0.196; that for C33U G68A, 0.796.
As to C33G U69G, the self-cleavage worked out at 0.123.
Turning to G34A C85G, the self-cleavage is 0.0978.
The value for C33A G55A was 0.159; that for G34A C41U was 0.217; that for G34A C41A was 0.157.
Regarding C33U U46C, the self-cleavage was 0.68.
The result for G34C A45C reads 0.107.
As for C33G C86U, the self-cleavage is 0.214.
The result for C33G C49A reads 0.119; that for G34A A71G, 0.178; that for G34A A71U, 0.185.
With C33U C86G, the self-cleavage amounted to 0.884.
Take C33U C86U: the self-cleavage was 0.928.
For the variant C33A C84G, the self-cleavage worked out at 0.219.
The value for C33G G82A was 0; that for C33G G35A was 0.0604; that for C33A G81A was 0.0339.
Turning to C33A G81C, the self-cleavage turned out to be 0.222.
The result for G34A G81C reads 0.0733; that for C33A G73C, 0.149.
Consider C33U C62U, for which the self-cleavage turned out to be 0.816.
The result for C33A C61A reads 0.281; that for C33A U65A, 0.332; that for C33U C66A, 0.774.
Consider C33U C66G, for which the self-cleavage came out at 0.946.
The result for C33A C66G reads 0.302.
As to C33A C66A, the self-cleavage came out at 0.485.
The value for C33A C66U was 0.241.
For the variant C33A G54A, the self-cleavage was 0.253.
Regarding C33A G39A, the self-cleavage is 0.162.
The value for C33G G52C was 0.128; that for C33A U79A was 0.128.
The value for C33U A87U was 0.885.
With C33U A87G, the self-cleavage turned out to be 0.79.
On to C33U G55U, for which the self-cleavage is 0.865.
The value for C33U G55C was 0.831; that for G34C A43G was 0; that for C33G G74A was 0.0449.
The value for C33A C62U was 0.241.
The value for C33A C62A was 0.344.
Regarding C33A C62G, the self-cleavage is 0.208.
Regarding C33A G74C, the self-cleavage worked out at 0.106.
Turning to C33A G74U, the self-cleavage worked out at 0.0755.
With C33A U72C, the self-cleavage is 0.151.
The value for C33G A42C was 0.142; that for C33G A42G was 0.0665.
The value for C33U G53C was 0.727.
The value for C33U G53A was 0.95; that for C33A U37G was 0.119.
On to C33A U37C, for which the self-cleavage amounted to 0.469.
In the case of C33G G38A, the self-cleavage came to 0.0308.
The value for C33A G53C was 0.332; that for G34A U60A was 0.204.
Take C33U G35U: the self-cleavage came to 0.383.
In the case of C33U G35A, the self-cleavage is 0.205.
The value for C33U G35C was 0.237; that for G34A G76C was 0.217; that for C33G A78G was 0.
With C33G C36U, the self-cleavage amounted to 0.0997.
The result for C33U A51G reads 1.01; that for C33U C85G, 0.494; that for C33A G38C, 0.151.
The result for C33G G54A reads 0.332; that for C33U C44G, 0.453.
Turning to G34A C62A, the self-cleavage is 0.0692.
The value for G34A C62U was 0.106; that for C33A U69A was 0.325.
In the case of G34A C58A, the self-cleavage came to 0.203.
Take C33G U65G: the self-cleavage was 0.222.
The result for C33G U65C reads 0.115; that for G34A A45U, 0.16.
The value for C33G A43U was 0.175.
The value for C33A G40C was 0.217.
For G34A G55C, the self-cleavage was 0.141.
On to C33U G52A, for which the self-cleavage was 0.71.
Take C33U G52U: the self-cleavage was 0.747.
The value for C33A G34U was 0.0712; that for G34A G38C was 0.166; that for C33U G82U was 0.266.
The result for C33G G81U reads 0.0354; that for C33A C58A, 0.19; that for C33A C58U, 0.142.
With C33G U72C, the self-cleavage amounted to 0.115.
As for C33U C36U, the self-cleavage was determined as 0.519.
The result for C33U C57A reads 0.935.
The result for C33U C57G reads 1.04; that for C33U C57U, 0.719.
The result for G34C A42C reads 0.125; that for C33G C66G, 0.122.
With G34A C63G, the self-cleavage worked out at 0.133.
Regarding G34A G74U, the self-cleavage was 0.0875.
For the variant G34A G74A, the self-cleavage came out at 0.0852.
The result for C33G C44A reads 0.0978.
The result for C33G C44U reads 0.172; that for C33G G68C, 0.0875; that for C33G G68U, 0.173.
For the variant G34A A43G, the self-cleavage came to 0.125.
On to G34A G40U, for which the self-cleavage amounted to 0.0685.
In the case of C33U U37C, the self-cleavage turned out to be 0.923.
Regarding G34A G73U, the self-cleavage stood at 0.0437.
For the variant C33U U65A, the self-cleavage was 0.739.
Turning to C33U U65G, the self-cleavage stood at 1.14.
The result for C33U U65C reads 0.969.
The value for C33G C48A was 0.
The value for G34A A87G was 0.159; that for G34A A87C was 0.126; that for G34A C48A was 0.259.
As to G34A C61A, the self-cleavage stood at 0.302.
The result for G34A C61G reads 0.104; that for C33U G76U, 1.02; that for C33U G76C, 1.07.
On to C33U G34U, for which the self-cleavage was 0.219.
The result for C33U A77C reads 0.298; that for C33G G53C, 0.156.
Turning to C33U U72C, the self-cleavage turned out to be 0.268.
The result for C33U U72A reads 0.346; that for C33G U46A, 0.
The value for C33A G67C was 0.277; that for C33U C63A was 0.716.
The result for C33U C58A reads 1.06.
